Reference: patent US20230192881A1 (EDESA BIOTECH RESEARCH, published 2023)
Values joined by “and” are separate entries in the source; they are usually repeats but may differ in a detail not shown here. Equal entries are not always repeated.

What was measured:
[1] = target: T1, human TLR4 (human, UniProt O00206 24-839); assay: cell-based or functional assay
[2] = target: T1, human TLR4; assay: cell-based or functional assay; remark: listed apart in the source
[3] = target: T2, human FcγRIIa 131R (human, UniProt P12318 36-218, limits assumed); assay: surface plasmon resonance
T2 sequence (looked up): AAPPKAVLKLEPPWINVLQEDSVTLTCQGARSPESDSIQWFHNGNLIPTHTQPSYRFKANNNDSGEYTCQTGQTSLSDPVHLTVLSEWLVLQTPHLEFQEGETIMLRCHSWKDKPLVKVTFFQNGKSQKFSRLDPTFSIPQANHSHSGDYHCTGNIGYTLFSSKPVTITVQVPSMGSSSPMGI

[4] = target: T3, human FcγRI (human, UniProt P12314 16-288, limits assumed); assay: surface plasmon resonance
T3 construct: also called CD64; FcyRI

[5] = target: T4, human FcγRIIa 131H (human, UniProt P12318 36-218, limits assumed); assay: surface plasmon resonance
T4 sequence (looked up): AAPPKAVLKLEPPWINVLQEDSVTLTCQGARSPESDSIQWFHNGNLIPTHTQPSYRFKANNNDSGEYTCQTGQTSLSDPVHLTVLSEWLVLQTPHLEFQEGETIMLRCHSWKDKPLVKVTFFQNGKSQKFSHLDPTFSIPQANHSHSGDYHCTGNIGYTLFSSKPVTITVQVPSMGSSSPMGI

[6] = target: T5, human FcγRIIb (human, UniProt P31994 43-217, limits assumed); assay: surface plasmon resonance
T5 construct: also called CD32b
T5 sequence (looked up): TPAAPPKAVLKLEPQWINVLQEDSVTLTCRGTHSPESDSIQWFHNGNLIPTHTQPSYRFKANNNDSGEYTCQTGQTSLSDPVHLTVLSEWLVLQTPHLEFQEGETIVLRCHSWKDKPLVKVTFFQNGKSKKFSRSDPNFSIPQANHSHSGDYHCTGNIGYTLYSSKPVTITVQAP

[7] = target: T2, human FcγRIIa 131R; assay: surface plasmon resonance (refers to Table 9)
[8] = target: T1, human TLR4; assay: KinExA combined with ELISA, average Kd
[9] = target: T6, mouse TLR4 (mouse, UniProt Q9QUK6 26-629, limits assumed); assay: cell-based or functional assay
T6 sequence (looked up): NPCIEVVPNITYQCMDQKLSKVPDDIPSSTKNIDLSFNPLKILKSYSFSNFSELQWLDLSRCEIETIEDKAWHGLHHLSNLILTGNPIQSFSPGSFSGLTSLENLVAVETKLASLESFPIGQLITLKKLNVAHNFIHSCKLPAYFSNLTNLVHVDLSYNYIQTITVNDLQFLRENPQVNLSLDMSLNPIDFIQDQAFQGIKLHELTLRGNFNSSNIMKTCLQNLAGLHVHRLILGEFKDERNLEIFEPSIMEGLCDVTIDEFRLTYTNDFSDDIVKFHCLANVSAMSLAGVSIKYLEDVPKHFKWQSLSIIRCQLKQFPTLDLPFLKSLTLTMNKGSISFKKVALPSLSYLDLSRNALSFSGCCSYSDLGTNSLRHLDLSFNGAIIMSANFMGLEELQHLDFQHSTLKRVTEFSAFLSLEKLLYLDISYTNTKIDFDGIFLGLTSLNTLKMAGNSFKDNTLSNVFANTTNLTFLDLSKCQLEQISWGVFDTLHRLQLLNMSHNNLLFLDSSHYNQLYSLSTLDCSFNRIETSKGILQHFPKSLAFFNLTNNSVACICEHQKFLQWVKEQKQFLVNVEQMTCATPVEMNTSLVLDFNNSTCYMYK

[10] = target: T6, mouse TLR4; assay: method not stated, average Kd
[11] = target: T7, mouse FcγRIV (mouse, UniProt A0A0B4J1G0 21-203); assay: method not stated
T7 construct: also called mFcγRIV
T7 sequence: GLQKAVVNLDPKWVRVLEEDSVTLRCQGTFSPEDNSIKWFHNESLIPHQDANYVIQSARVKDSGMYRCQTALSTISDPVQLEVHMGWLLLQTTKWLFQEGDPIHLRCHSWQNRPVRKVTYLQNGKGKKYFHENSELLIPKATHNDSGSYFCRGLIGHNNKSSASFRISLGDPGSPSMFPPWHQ

[12] = target: T8, mouse FcγRII (mouse, UniProt P08101 30-210, limits assumed); assay: method not stated
T8 construct: also called mFcγRII; mouse FcyRII
T8 sequence (looked up): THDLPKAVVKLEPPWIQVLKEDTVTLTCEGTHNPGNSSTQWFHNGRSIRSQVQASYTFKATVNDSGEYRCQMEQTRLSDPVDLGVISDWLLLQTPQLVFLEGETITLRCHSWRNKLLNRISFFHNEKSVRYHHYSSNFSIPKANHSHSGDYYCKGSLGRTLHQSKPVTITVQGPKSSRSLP

[13] = target: T9, mouse FcRn (mouse, UniProt Q61559 22-297; P01887 21-119, limits assumed); assay: method not stated
T9 construct: also called mFcRn
T9 sequence (looked up) 1: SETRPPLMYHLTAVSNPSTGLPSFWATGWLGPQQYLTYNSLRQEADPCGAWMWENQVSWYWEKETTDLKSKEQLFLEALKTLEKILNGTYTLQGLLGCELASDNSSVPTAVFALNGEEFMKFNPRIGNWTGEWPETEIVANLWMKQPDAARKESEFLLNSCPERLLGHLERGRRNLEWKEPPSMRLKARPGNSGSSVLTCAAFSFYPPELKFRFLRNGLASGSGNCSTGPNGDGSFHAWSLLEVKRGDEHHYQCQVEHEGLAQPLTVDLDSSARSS
T9 sequence (looked up) 2: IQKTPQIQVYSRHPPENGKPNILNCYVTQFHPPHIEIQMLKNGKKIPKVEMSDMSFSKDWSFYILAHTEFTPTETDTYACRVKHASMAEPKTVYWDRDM

[14] = target: T10, mouse FcγRIII (mouse, UniProt P08508 31-215, limits assumed); assay: method not stated
T10 construct: also called mFcγRIII
T10 sequence (looked up): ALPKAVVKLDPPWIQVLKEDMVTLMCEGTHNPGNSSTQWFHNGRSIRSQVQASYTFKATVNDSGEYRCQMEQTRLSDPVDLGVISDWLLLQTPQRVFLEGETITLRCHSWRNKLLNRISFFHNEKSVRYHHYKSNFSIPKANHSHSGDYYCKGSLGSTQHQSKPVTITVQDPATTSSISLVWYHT

[15] = target: T11, mouse FcγRI (mouse, UniProt P26151 25-297, limits assumed); assay: method not stated
T11 construct: also called mFcγRI; mouse FcyRI
T11 sequence (looked up): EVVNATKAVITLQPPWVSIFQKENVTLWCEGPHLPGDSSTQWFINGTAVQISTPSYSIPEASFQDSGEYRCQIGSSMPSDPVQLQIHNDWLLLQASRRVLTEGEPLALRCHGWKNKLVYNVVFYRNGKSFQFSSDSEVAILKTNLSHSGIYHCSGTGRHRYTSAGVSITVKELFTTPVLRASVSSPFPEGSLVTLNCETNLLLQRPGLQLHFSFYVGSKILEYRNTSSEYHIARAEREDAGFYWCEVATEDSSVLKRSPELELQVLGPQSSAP

[16] = target: T1, human TLR4; assay: KinExA

T1 sequence (O00206 24-839 limits assumed): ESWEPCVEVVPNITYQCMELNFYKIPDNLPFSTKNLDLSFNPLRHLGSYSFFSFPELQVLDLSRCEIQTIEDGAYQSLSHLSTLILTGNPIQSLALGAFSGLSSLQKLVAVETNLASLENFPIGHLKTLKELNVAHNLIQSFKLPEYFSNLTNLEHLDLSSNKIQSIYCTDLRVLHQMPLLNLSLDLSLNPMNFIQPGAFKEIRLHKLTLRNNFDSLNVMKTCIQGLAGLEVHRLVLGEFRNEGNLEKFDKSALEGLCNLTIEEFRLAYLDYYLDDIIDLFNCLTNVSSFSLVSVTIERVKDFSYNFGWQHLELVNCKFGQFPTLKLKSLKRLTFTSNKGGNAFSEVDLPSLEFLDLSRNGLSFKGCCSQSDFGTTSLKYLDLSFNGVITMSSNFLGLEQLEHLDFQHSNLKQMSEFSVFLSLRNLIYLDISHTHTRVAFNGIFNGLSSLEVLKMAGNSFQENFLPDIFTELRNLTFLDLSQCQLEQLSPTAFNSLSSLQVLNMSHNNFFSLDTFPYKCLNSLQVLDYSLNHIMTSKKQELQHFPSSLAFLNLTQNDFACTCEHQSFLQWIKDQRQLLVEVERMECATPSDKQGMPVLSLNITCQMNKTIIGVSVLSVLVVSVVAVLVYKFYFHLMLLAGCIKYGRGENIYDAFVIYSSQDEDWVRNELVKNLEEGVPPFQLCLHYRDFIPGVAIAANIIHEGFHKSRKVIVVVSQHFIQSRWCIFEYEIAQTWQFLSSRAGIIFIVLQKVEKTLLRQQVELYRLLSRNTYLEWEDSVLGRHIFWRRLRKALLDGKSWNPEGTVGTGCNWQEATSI
T3 sequence (P12314 16-288 limits assumed): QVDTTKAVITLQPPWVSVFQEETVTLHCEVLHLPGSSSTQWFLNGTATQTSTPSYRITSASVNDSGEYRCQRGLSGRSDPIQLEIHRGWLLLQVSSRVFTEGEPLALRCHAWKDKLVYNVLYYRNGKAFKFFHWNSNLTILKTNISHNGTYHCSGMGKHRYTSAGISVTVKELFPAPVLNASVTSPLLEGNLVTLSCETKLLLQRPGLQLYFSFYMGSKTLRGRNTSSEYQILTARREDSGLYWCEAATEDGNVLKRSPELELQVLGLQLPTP

B1: NI-0101 (antibody, human IgG1, kappa)
heavy: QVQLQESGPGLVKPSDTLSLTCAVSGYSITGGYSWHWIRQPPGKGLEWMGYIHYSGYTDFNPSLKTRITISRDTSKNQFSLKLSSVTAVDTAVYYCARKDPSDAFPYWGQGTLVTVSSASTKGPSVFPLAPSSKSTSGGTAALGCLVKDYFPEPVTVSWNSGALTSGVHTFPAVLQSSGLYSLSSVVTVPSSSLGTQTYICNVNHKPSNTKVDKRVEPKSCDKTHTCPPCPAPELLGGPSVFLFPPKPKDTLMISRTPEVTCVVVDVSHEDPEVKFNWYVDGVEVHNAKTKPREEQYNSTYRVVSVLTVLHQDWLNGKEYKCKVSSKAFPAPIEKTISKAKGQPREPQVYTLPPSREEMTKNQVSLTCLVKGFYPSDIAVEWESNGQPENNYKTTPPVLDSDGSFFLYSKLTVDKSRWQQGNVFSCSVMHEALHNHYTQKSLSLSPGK
light: EIVLTQSPDFQSVTPKEKVTITCRASQSISDHLHWYQQKPDQSPKLLIKYASHAISGVPSRFSGSGSGTDFTLTINSLEAEDAATYYCQQGHSFPLTFGGGTKVEIKRTVAAPSVFIFPPSDEQLKSGTASVVCLLNNFYPREAKVQWKVDNALQSGNSQESVTEQDSKDSTYSLSSTLTLSKADYEKHKVYACEVTHQGLSSPVTKSFNRGEC
- IC50, Blockade of LPS induced TLR4 signalling, human whole blood (FcγRIIaHH) [1]: 2.19 nM and 324 ng/mL
- IC50, LPS mediated cytokine production in human primary macrophages [2]: 0.0104 nM
- IC50, LPS-induced IL-6 release in THP1 cells (FcγRIIa 131HH) [2]: 0.0027 nM
- IC50, LPS-induced IL-6 release in U937 cells (FcγRIIa 131RR) [2]: 0.002 nM
- IC50, LPS-induced IL-6 release in human whole blood, FcγRIIa 131HH donors [2]: 2.19 nM
- IC50, LPS-induced IL-6 release in human whole blood, FcγRIIa 131RH donors [2]: 0.223 nM
- IC50, LPS-induced IL-6 release in human whole blood, FcγRIIa 131RR donors [2]: 0.128 nM
- IC50, Tenascin-C mediated cytokine production in human primary macrophages [2]: 0.022 nM
- IC50, nickel mediated cytokine production in human primary macrophages [2]: 0.015 nM
- Kd [3]: 151 nM
- Kd [4]: 47.3 nM
- Kd [5]: 311 nM
- Kd [6]: 870 nM
- fold higher affinity than to the 131H variant [7]: 2 fold
- Kd [8]: 0.139 nM

B2: 5E3 (antibody, mouse IgG2a, kappa)
heavy: QIQLVQSGPELKKPGESVKISCKASGYTFTDYVMYWVKQAPGKGLKWMGWINTNTGKPTYADDFKGRFVFSLEASASTANLQISNLKNEDTATYFCTRGNYPGLRVMDAWGQGASVTVSSAKTTAPSVYPLAPVCGDTTGSSVTLGCLVKGYFPEPVTLTWNSGSLSSGVHTFPAVLQSDLYTLSSSVTVTSSTWPSQSITCNVAHPASSTKVDKKIEPRGPTIKPCPPCKCPAPNLLGGPSVFIFPPKIKDVLMISLSPIVTCVVVDVSEDDPDVQISWFVNNVEVHTAQTQTHREDYNSTLRVVSALPIQHQDWMSGKEFKCKVNNKDLPAPIERTISKPKGSVRAPQVYVLPPPEEEMTKKQVTLTCMVTDFMPEDIYVEWTNNGKTELNYKNTEPVLDSDGSYFMYSKLRVEKKNWVERNSYSCSVVHEGLHNHHTTKSFSRTPGK
light: DIQMTQSPSSMSVSLGDTVTITCRASQDVGIYVNWFQQKPGKSPRRLIFRATNLADGVPSRFSGSRSGSDYSLTISSLGSEDVAGYHCLQYDEYPLTFGSGTKLEIKRADAAPTVSIFPPSSEQLTSGGASVVCFLNNFYPKDINVKWKIDGSERQNGVLNSWTDQDSKDSTYSMSSTLTLTKDEYERHNSYTCEATHKTSTSPIVKSFNRNEC
notes: Chimeric anti-mouse TLR4 mAb: rat variable regions grafted onto a mouse IgG2a kappa Fc
- IC50, Blockade of LPS induced TLR4 signalling, mouse whole blood [9]: 1.16 nM and 173 ng/mL
- Kd [10]: 0.027 nM
- Kd [11]: 113 nM
- Kd [12]: 3260 nM
- Kd [13]: 2.93 nM
- Kd [14]: 505 nM
- Kd [15]: 50.8 nM

B3: Hu 15C1 (antibody, V domains shown)
VH: QVQLQESGPGLVKPSDTLSLTCAVSGYSITGGYSWHWIRQPPGKGLEWMGYIHYSGYTDFNPSLKTRITISRDTSKNQFSLKLSSVTAVDTAVYYCARKDPSDAFPYWGQGTLVTVSS
VL: EIVLTQSPDFQSVTPKEKVTITCRASQSISDHLHWYQQKPDQSPKLLIKYASHAISGVPSRFSGSGSGTDFTLTINSLEAEDAATYYCQQGHSFPLTFGGGTKVEIK
notes: the rest is a non-mutated human IgG1 Fc
- Kd [16]: 0.139 nM
